Molecular target: EGFR (UniProt P00533 25-1210)
Assay: SPR; printed as pKD […]

B1: aEGFR-R1-1 (antibody, V domains shown)
VH: EVKLQQSGDETMRPGASVRMSCKAYGYTFTDYSMHWIRQRPGQGLEWIGIIIPLIDTTRYNQKFKGKATLTADTSSDTAYMELSRLTFEDSAVYYCARSYDPSGDDWFAYWGQGTLVTVSS
VL: DTVLTQSPALSVSPGERVDISCRASESVSTLLHWYQQKPGQQPTLLISLASSLESGVPARFSGSGSGTDFTLTIDPVEADDTAIYYCQESWNEPYAFGAGTKLELK
Q: How did the Kd turn out when B1 was run?
A: 0.126 nM

Reference: doi:10.1101/2025.01.28.635353 (2025)
